Source: PMC3039378 (The Journal of Biological Chemistry, 2010)

How the values were obtained:
[1] = target: SecA (wild type) (E. coli) (UniProt P10408)
[2] = target: SecA_(795Fl), SecA_(A795C) labelled with 5-iodoacetamidofluorescein (E. coli) (UniProt P10408); assay: other fluorescence titration
[3] = target: SecA-SecYEG complex with SecYE_(L106C)G cross-linked (106X, back-to-back dimer) in proteoliposomes (E. coli) (UniProt P10408)
[4] = target: SecA-SecYEG complex with SecYE_(L106C)G uncross-linked (106) in proteoliposomes (E. coli) (UniProt P10408)
[5] = target: SecA-SecYEG complex (wild-type SecYEG in proteoliposomes with SecA) (E. coli, UniProt P10408;P0AGA2;P0AG96;P0AG99)
[6] = target: T1, SecY subunit (within wild-type SecYEG) (E. coli, UniProt P0AGA2 1-443); assay: cross-linking
T1 sequence: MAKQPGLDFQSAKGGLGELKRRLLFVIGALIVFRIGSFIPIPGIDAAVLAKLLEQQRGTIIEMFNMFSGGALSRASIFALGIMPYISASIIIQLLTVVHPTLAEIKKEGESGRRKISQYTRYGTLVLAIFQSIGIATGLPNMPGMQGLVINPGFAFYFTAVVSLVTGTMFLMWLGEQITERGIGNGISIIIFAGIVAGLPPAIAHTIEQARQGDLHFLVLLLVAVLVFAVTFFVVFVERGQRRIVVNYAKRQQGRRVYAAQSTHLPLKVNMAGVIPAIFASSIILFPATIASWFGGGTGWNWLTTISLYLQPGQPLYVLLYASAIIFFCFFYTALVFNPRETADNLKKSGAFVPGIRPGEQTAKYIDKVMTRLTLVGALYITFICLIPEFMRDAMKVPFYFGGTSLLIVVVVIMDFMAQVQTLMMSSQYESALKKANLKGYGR

cross-linking = target: the molecule itself; assay: cross-linking

SecYE_(L106C)G cross-linked (106X), back-to-back dimer (from UniProt P0AGA2;P0AG96;P0AG99) (complex)
Kd [1]: 78 nM | Kd [2]: < 1 nM

proOmpA (full-length, wild type) (from UniProt P0A910 1-346) (natural protein)
Kd [3]: 92 nM | Kd [4]: 93 nM

B1: proOmpA (full-length, wild type) (natural protein)
chain: MKKTAIAIAVALAGFATVAQAAPKDNTWYTGAKLGWSQYHDTGFINNNGPTHENQLGAGAFGGYQVNPYVGFEMGYDWLGRMPYKGSVENGAYKAQGVQLTAKLGYPITDDLDIYTRLGGMVWRADTKSNVYGKNHDTGVSPVFAGGVEYAITPEIATRLEYQWTNNIGDAHTIGTRPDNGMLSLGVSYRFGQGEAAPVVAPAPAPAPEVQTKHFTLKSDVLFNFNKATLKPEGQAALDQLYSQLSNLDPKDGSVVVLGYTDRIGSDAYNQGLSERRAQSVVDYLISKGIPADKISARGMGESNPVTGNTCDNVKQRAALIDCLAPDRRVEIEVKGIKDVVTQPQA
Kd [5]: 72 ± 41 nM

B2: SecE subunit (within wild-type SecYEG) (natural protein)
chain: MSANTEAQGSGRGLEAMKWVVVVALLLVAIVGNYLYRDIMLPLRALAVVILIAAAGGVALLTTKGKATVAFAREARTEVRKVIWPTRQETLHTTLIVAAVTAVMSLILWGLDGILVRLVSFITGLRF
binding result [6]: binds | binding result (cross-linking): binds
